According to patent publication US20220332795A1 (ARO BIOTHERAPEUTICS, published 2022):

Tests used:
[1] = target: T1, recombinant biotinylated human CD71 extracellular domain (human, UniProt P02786 89-760, biotinylated); test: solution ELISA, signal ratio to HSA
T1 construct: extracellular domain; also called hCD71; huCD71 ECD

CD71 apical domain [2] = target: T2, CD71 apical domain (UniProt P02786 189-383, limits assumed); test: solution ELISA, signal ratio to HSA
T2 construct: domain: Apical domain

[3] = target: T1, recombinant biotinylated human CD71 …; test: solution ELISA
CD71 apical domain [4] = target: T2, CD71 apical domain; test: solution ELISA

T1 sequence (P02786 other isoform, or with tags, fused parts or gaps): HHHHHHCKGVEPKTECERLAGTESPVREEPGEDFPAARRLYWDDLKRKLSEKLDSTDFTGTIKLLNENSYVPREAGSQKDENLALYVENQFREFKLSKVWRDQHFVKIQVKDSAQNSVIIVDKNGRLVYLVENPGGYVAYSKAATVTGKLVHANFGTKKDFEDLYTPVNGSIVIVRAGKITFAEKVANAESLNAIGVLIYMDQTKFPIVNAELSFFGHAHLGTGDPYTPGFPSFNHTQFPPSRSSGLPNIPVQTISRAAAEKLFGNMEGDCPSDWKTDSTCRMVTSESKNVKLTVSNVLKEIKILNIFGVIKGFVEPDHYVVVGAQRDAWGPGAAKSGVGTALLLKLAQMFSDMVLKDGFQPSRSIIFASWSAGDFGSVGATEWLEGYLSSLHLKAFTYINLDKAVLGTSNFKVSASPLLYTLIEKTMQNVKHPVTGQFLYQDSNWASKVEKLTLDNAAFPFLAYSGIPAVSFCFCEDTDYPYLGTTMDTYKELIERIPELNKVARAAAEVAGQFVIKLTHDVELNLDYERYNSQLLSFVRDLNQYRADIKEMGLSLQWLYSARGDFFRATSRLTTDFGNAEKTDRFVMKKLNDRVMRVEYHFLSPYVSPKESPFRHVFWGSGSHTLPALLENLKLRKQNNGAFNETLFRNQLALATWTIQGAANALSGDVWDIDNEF
T2 sequence (P02786 189-383 limits assumed): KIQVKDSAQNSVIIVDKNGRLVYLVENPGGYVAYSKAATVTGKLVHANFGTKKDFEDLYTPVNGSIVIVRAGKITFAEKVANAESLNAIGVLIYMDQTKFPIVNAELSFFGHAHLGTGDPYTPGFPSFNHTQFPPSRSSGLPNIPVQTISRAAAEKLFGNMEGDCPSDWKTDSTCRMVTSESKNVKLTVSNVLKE

| Binder | hCD71:HSA [1] | apical domain:HSA (CD71 apical domain [2]) | hCD71, RLU [3] [RLU] | Apical domain, RLU (CD71 apical domain [4]) [RLU] |
| --- | --- | --- | --- | --- |
| SEQ ID NO 103 (designed binder, FN3 domain) MLPAPKNLVVSRVTEDSARLSWTAPDAAFDSFHIVYHEPRPSGEAIWLHVPGSERSYDLTGLKPGTEYEVGIVSVKGGDLSVPLVAFFTT | 28.2 | 143 | 818000 | 4.14e+06 |
| SEQ ID NO 168 (designed binder, FN3 domain) MLPAPKNLVVSRVTEDSARLSWTAPDAAFDSFYIAYAEPRPDGEAILLDVPGSERSYDLTGLKPGTEYSVLIHGVKGGLLSSPLSAIFTT | 271 | 468 | 3.97e+06 | 6.86e+06 |
| SEQ ID NO 104 (designed binder, FN3 domain) MLPAPKNLVVSRVTEDSARLSWTAPDAAFDSFYIAYAEPRPDGEAISLLVPGSERSYDLTGLKPGTEYSVLIHGVKGGLLSSPLYAVFTT | 89.8 | 559 | 947000 | 5.9e+06 |
| SEQ ID NO 105 (designed binder, FN3 domain) MLPAPKNLVVSRVTEDSARLSWTAPDAAFDSFYIAYAEPRPDGEAIFLVVPGSERSYDLTGLKPGTEYSVLIHGVKGGLLSSPLHANFTT | 142 | 397 | 2.43e+06 | 6.79e+06 |
| SEQ ID NO 106 (designed binder, FN3 domain) MLPAPKNLVVSRVTEDSARLSWTAPDAAFDSFYIAYAEPRPDGEAILLDVPGSERSYDLTGLKPGTEYSVLIHGVKGGLLSSPLYASFTT | 118 | 176 | 4.97e+06 | 7.37e+06 |
| SEQ ID NO 112 (designed binder, FN3 domain) MLPAPKNLVVSRVTEDSARLSWTAPDAAFDSFYIAYAEPRPDGEAILLLVPGSERSYDLTGLKPGTEYSVLIHGVKGGLLSSPLSAIFTT | 413 | 709 | 4.48e+06 | 7.7e+06 |
| SEQ ID NO 113 (designed binder, FN3 domain) MLPAPKNLVVSRVTEDSARLSWTAPDAAFDSFYIAYAEPRPDGEAINLQVPGSERSYDLTGLKPGTEYSVLIHGVKGGLLSSPLVAFFTT | 42.6 | 196 | 1.27e+06 | 5.83e+06 |
| SEQ ID NO 116 (designed binder, FN3 domain) MLPAPKNLVVSRVTEDSARLSWTAPDAAFDSFYIAYAEPRPDGEAIQLVVPGSERSYDLTGLKPGTEYSVLIHGVKGGLLSSPLSAIFTT | 37.1 | 427 | 428000 | 4.93e+06 |
| SEQ ID NO 117 (designed binder, FN3 domain) MLPAPKNLVVSRVTEDSARLSWTAPDAAFDSFYIAYAEPRPDGEAITLDVPGSERSYDLTGLKPGTEYSVLIHGVKGGLLSSPLSAIFTT | 75.4 | 312 | 1.3e+06 | 5.36e+06 |
| SEQ ID NO 118 (designed binder, FN3 domain) MLPAPKNLVVSRVTEDSARLSWTAPDAAFDSFYIAYAEPRPDGEAIWLVVPGSERSYDLTGLKPGTEYSVLIHGVKGGLLSSPLVASFTT | 120 | 459 | 1.73e+06 | 6.58e+06 |
| SEQ ID NO 119 (designed binder, FN3 domain) MLPAPKNLVVSRVTEDSARLSWTAPDAAFDSFYIAYAEPRPDGEAINLDVPGSERSYDLTGLKPGTEYSVLIHGVKGGLLSSPLVAEFTT | 57.6 | 228 | 1.25e+06 | 4.93e+06 |
| SEQ ID NO 120 (designed binder, FN3 domain) MLPAPKNLVVSRVTEDSARLSWTAPDAAFDSFYIAYAEPRPDGEAIHLSVPGSERSYDLTGLKPGTEYSVLIHGVKGGLLSSPLVAIFTT | 42.5 | 487 | 501000 | 5.75e+06 |
| SEQ ID NO 122 (designed binder, FN3 domain) MLPAPKNLVVSRVTEDSARLSWTAPDAAFDSFYIAYAEPRPDGEAIILVVPGSERSYDLTGLKPGTEYSVLIHGVKGGLLSSPLSAHFTT | 351 | 592 | 4.77e+06 | 8.06e+06 |
| SEQ ID NO 124 (designed binder, FN3 domain) MLPAPKNLVVSRVTEDSARLSWTAPDAAFDSFYIAYAEPRPDGEAIQLHVPGSERSYDLTGLKPGTEYSVLIHGVKGGLLSSPLLASFTT | 63.1 | 224 | 1.54e+06 | 5.46e+06 |
| SEQ ID NO 125 (designed binder, FN3 domain) MLPAPKNLVVSRVTEDSARLSWTAPDAAFDSFYIAYAEPRPDGEAIALHVPGSERSYDLTGLKPGTEYSVLIHGVKGGLLSSPLVAFFTT | 76.2 | 327 | 1.23e+06 | 5.26e+06 |
| SEQ ID NO 127 (designed binder, FN3 domain) MLPAPKNLVVSRVTEDSARLSWTAPDAAFDSFYIAYAEPRPDGEAIFLGVPGSERSYDLTGLKPGTEYSVLIHGVKGGLLSSPLSAIFTT | 66.3 | 292 | 1.41e+06 | 6.24e+06 |
| SEQ ID NO 128 (designed binder, FN3 domain) MLPAPKNLVVSRVTEDSARLSWTAPDAAFDSFYIAYAEPRPDGEAIVLRVPGSERSYDLTGLKPGTEYSVLIHGVKGGLLSSPLIASFTT | 121 | 209 | 4.31e+06 | 7.41e+06 |
| SEQ ID NO 129 (designed binder, FN3 domain) MLPAPKNLVVSRVTEDSARLSWTAPDAAFDSFYIAYAEPRPDGEAINLWVPGSERSYDLTGLKPGTEYSVLIHGVKGGLLSSPLDASFTT | 13.8 | 264 | 219000 | 4.18e+06 |
| SEQ ID NO 131 (designed binder, FN3 domain) MLPAPKNLVVSRVTEDSARLSWTAPDAAFDSFYIAYAEPRPDGEAIHLWVPGSERSYDLTGLKPGTEYSVLIHGVKGGLLSSPLIAHFTT | 10.3 | 269 | 203000 | 5.28e+06 |
| SEQ ID NO 132 (designed binder, FN3 domain) MLPAPKNLVVSRVTEDSARLSWTAPDAAFDSFFIPYAEPSPTGEAIVLTVPGSERSYDLTGLKPGTEYSVLIHGVKGGLLSSPLSAHFTT | 43.2 | 180 | 1.78e+06 | 7.43e+06 |
| SEQ ID NO 133 (designed binder, FN3 domain) MLPAPKNLVVSRVTEDSARLSWTAPDAAFDSFYIAYAEPRPDGEAIYLYVPGSERSYDLTGLKPGTEYSVLIHGVKGGLLSSPLDAFFTT | 41 | 186 | 1.04e+06 | 4.74e+06 |
